According to patent US5661126:

Biological target: recombinant human Mullerian Inhibiting Substance (human) (UniProt P03971)
Experiment: absorption of DG-MIS with IgG (1:3) and Protein A Sepharose, MIS in supernatant by ELISA; MIS alone 9.0 nM

MIS level left after absorption: 8.8 nM
Substance: normal rabbit IgG (Dako Corporation, Denmark Lot 108) (polyclonal serum or antibody)
